In assay [1] the target is Human GPA33 on GPA33+ colorectal cancer cell lines (Colo 205, LS 174T, SW 1222) (human) (UniProt Q99795). Put plainly: cell binding to LS174T Luc cells; IgG format.
Assay [2] shares this target. Put plainly: cell binding to SW1222 Luc cells; IgG format.
Assay [3] deals with Human GPA33 (recombinant protein, Novoprotein) (human) (UniProt Q99795). Put plainly: SPR (Biacore), binding to GPA33 protein; IgG format.

As a reminder, the EC50 is the concentration giving half of the maximal effect. Read a high EC50 as a less potent agent. What is called Kd is the equilibrium constant for the complex coming apart.

Sequence of Human GPA33 on GPA33+ colorectal cancer cell lines (Colo 205, LS 174T, SW 1222) (human) (Q99795 22-319 limits assumed): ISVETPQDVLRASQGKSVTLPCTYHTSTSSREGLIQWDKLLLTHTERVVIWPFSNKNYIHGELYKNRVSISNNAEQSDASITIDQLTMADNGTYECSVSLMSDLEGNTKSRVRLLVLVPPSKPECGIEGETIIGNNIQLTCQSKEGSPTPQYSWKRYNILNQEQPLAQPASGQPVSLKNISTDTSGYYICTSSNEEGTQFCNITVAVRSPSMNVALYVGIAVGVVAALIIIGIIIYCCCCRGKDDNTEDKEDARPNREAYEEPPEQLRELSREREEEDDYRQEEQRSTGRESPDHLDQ
Sequence of Human GPA33 (recombinant protein, Novoprotein) (human) (Q99795 22-235 limits assumed): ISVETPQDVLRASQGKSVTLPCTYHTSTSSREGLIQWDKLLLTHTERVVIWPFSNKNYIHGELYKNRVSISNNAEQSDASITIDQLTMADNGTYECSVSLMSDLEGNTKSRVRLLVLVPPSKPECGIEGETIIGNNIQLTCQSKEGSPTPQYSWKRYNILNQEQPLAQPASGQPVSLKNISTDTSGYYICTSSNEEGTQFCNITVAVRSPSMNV

B1: G3A_VK1+VH1 (antibody, IgG1, V domains shown, part only)
VH: EVQLVESGGGLVKPGGSLRLSCAASGFAFSTYDMSWVRQAPGKGLEWVSTISSGGSYTYYADSVKGRFTISRDNAKNSLYLQMNSLRAEDTAVYYCAPTTVVPFAYWGQGTLVTVSA
VL: DIQMTQSPSSLSASVGDRVTITCKASQNVRTVVAWYQQKPGKAPKRLIYLASNRHTGVPSRFSGSGSGTEFTLTISNLQPEDFATYYCLQHWSYPLTFGSGTKLEVK
modifications: IgG1 constant regions not given
On to B1, for which the EC50 in assay [1] came to 1.12 µg/mL; in assay [2], 1.51 µg/mL. Further, the Kd in assay [3] came to 0.87 nM.

B2: G3A_VK1+VH3 (antibody, IgG1, V domains shown, part only)
VH: EVQLVESGGGLVKPGGSLRLSCAASGFAFSTYDMSWVRQAPGKGLEWVATISSGGSYTYYADSVKGRFTISRDSAKNSLYLQMNSLRAEDTAVYYCAPTTVVPFAYWGQGTLVTVSA
VL: DIQMTQSPSSLSASVGDRVTITCKASQNVRTVVAWYQQKPGKAPKRLIYLASNRHTGVPSRFSGSGSGTEFTLTISNLQPEDFATYYCLQHWSYPLTFGSGTKLEVK
modifications: IgG1 constant regions
Regarding B2, the 50% effective concentration (EC50) in assay [1] worked out at 1.78 µg/mL; in assay [2] it was 1.32 µg/mL. Further, the Kd in assay [3] amounted to 1.49 nM.

B3: G3A_VK2+VH2 (antibody, IgG1, V domains shown, part only)
VH: EVQLVESGGGLVKPGGSLRLSCAASGFAFSTYDMSWVRQAPGKGLEWVATISSGGSYTYYLDSVKGRFTISRDSAKNSLYLQMNSLRAEDTAVYYCAPTTVVPFAYWGQGTLVTVSA
VL: DIQMTQSPSSLSTSVGDRVTITCKASQNVRTVVAWYQQKPGKAPKTLIYLASSLQSGVPSRFSGSGSGTEFTLTISNVQPEDFADYFCLQHWSYPLTFGSGTKLEVK
modifications: IgG1 constant regions
For the molecule B3, the Kd in assay [3] turned out to be 9.54 nM.

B4: G3A_VK2+VH3 (antibody, IgG1, V domains shown, part only)
VH: EVQLVESGGGLVKPGGSLRLSCAASGFAFSTYDMSWVRQAPGKGLEWVATISSGGSYTYYADSVKGRFTISRDSAKNSLYLQMNSLRAEDTAVYYCAPTTVVPFAYWGQGTLVTVSA
VL: DIQMTQSPSSLSTSVGDRVTITCKASQNVRTVVAWYQQKPGKAPKTLIYLASSLQSGVPSRFSGSGSGTEFTLTISNVQPEDFADYFCLQHWSYPLTFGSGTKLEVK
modifications: IgG1 constant regions not given
In the case of B4, the EC50 in assay [2] turned out to be 1.89 µg/mL. Further, in assay [3], the Kd was 8.39 nM.

B5: G3A_VK1+VH2 (antibody, IgG1, V domains shown, part only)
VH: EVQLVESGGGLVKPGGSLRLSCAASGFAFSTYDMSWVRQAPGKGLEWVATISSGGSYTYYLDSVKGRFTISRDSAKNSLYLQMNSLRAEDTAVYYCAPTTVVPFAYWGQGTLVTVSA
VL: DIQMTQSPSSLSASVGDRVTITCKASQNVRTVVAWYQQKPGKAPKRLIYLASNRHTGVPSRFSGSGSGTEFTLTISNLQPEDFATYYCLQHWSYPLTFGSGTKLEVK
modifications: IgG1 constant regions
Turning to B5, the concentration for a half-maximal effect (EC50) in assay [1] is 0.654 µg/mL; in assay [2] it was 0.991 µg/mL. The Kd in assay [3] was 1.73 nM.

B6: G3A_VK3+VH2 (antibody, IgG1, V domains shown, part only)
VH: EVQLVESGGGLVKPGGSLRLSCAASGFAFSTYDMSWVRQAPGKGLEWVATISSGGSYTYYLDSVKGRFTISRDSAKNSLYLQMNSLRAEDTAVYYCAPTTVVPFAYWGQGTLVTVSA
VL: DIQMTQSPSSLSTSVGDRVTITCKASQNVRTVVAWYQQKPGKAPKTLIYLASNRHSGVPSRFSGSGSGTEFTLTISNLQPEDFATYYCLQHWSYPLTFGSGTKLEVK
modifications: IgG1 constant regions not given
Consider B6, for which the EC50 came out at 0.381 µg/mL in assay [1] and 0.383 µg/mL in assay [2]. The Kd in assay [3] turned out to be 0.241 nM.

B7: G3A_VK4+VH2 (antibody, IgG1, V domains shown, part only)
VH: EVQLVESGGGLVKPGGSLRLSCAASGFAFSTYDMSWVRQAPGKGLEWVATISSGGSYTYYLDSVKGRFTISRDSAKNSLYLQMNSLRAEDTAVYYCAPTTVVPFAYWGQGTLVTVSA
VL: DIQMTQSPSSLSASVGDRVTITCKASQNVRTVVAWYQQKPGKAPKTLIYLASNRHTGVPSRFSGSGSGTEFTLTISNLQPEDFATYYCLQHWSYPLTFGSGTKLEVK
modifications: IgG1 constant regions not given
B7: the figures for the half-maximal effective concentration (EC50) in assay [1] and in assay [2] were 0.364 µg/mL and 0.314 µg/mL, respectively. The Kd in assay [3] is 0.229 nM.

B8: G3A_VK2+VH1 (antibody, IgG1, V domains shown, part only)
VH: EVQLVESGGGLVKPGGSLRLSCAASGFAFSTYDMSWVRQAPGKGLEWVSTISSGGSYTYYADSVKGRFTISRDNAKNSLYLQMNSLRAEDTAVYYCAPTTVVPFAYWGQGTLVTVSA
VL: DIQMTQSPSSLSTSVGDRVTITCKASQNVRTVVAWYQQKPGKAPKTLIYLASSLQSGVPSRFSGSGSGTEFTLTISNVQPEDFADYFCLQHWSYPLTFGSGTKLEVK
modifications: IgG1 constant regions not given
As for B8, in assay [1], the EC50 is 1.2 µg/mL. Further, in assay [3], the Kd came to 5.8 nM.

These data come from US20240026037A1.
